{"source": "the supplement of paper PMC9732359", "note": "± gives the uncertainty stated by the source."}
{"assay": "protein stability index of a GFP-peptide fusion (yeast GPS) (PSI 1-4); higher = more stable; sorted into four equal gates, so the index is relative within each strain", "conditions": "san1∆", "summary_of_the_method": "(§1)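 The protein stability index combines read frequencies across sorting gates, each weighted by its gate number and then summed. To obtain those frequencies, a pooled yeast library of GFP fusions to tiled 17-residue yeast protein peptides, on a plasmid also expressing Cherry, was grown to mid-log phase in leucine-free medium. The cells were sorted into four equal gates by GFP/Cherry ratio before plasmid amplification by PCR and Illumina sequencing.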"}
{"sequence": "LKKANIIYHTTFSWLNA [YLR018C/POM34]", "protein stability index": "2.41 ± 0.043"}
{"sequence": "LKKGEVSLGTSIMAVTF [PRE3]", "protein stability index": "1.13 ± 0.18"}
{"assay": "protein stability index of a GFP-peptide fusion (yeast GPS) (PSI 1-4); higher = more stable; sorted into four equal gates, so the index is relative within each strain", "conditions": "ubr1∆", "summary_of_the_method": "as §1"}
{"sequence": "KYIVKASSGPRYIVGVR [RPT4]", "protein stability index": "1.89 ± 0.075"}
{"sequence": "KYMVKGGLSGEESIKIY [UBP6]", "protein stability index": "2.67 ± 0.07"}
{"sequence": "KYQKALHYLKKFKHIDD [SRP72]", "protein stability index": "2.31 ± 0.14"}
{"sequence": "KYREGQVLFQGLIYSFN [POP1]", "protein stability index": "2.42 ± 0.11"}
{"sequence": "KYRPETAAEKKERLTKE [RPL8A]", "protein stability index": "3.01 ± 0.067"}
{"sequence": "LAEIKKTPLLKQYLSAS [RPL6B]", "protein stability index": "1.51 ± 0.036"}
{"sequence": "LAFAKLVHSEYLINGKR [SRP68]", "protein stability index": "2.53 ± 0.034"}
{"sequence": "LAFKKNEMLLKRVTKVK [MTW1]", "protein stability index": "2.03 ± 0.035"}
{"sequence": "LAIDNMYILGMCVSKGN [YCG1]", "protein stability index": "2.42 ± 0.057"}
{"sequence": "LAKYRDAGKIDKHLYHV [RPL19A]", "protein stability index": "3.61 ± 0.095"}
{"sequence": "LALENGEITKTENEKFI [NUT1]", "protein stability index": "3.3 ± 0.14"}
{"sequence": "LALMTAHSLSPKDYIKK [CDC53]", "protein stability index": "3.15 ± 0.052"}
{"sequence": "LAMEAILNELEVFIGRV [YJR042W/NUP85]", "protein stability index": "2.51 ± 0.06"}
{"sequence": "LANWFLEVYASGNPNAT [YML031W/NDC1]", "protein stability index": "1.69 ± 0.045"}
{"sequence": "LAQTLKLWRKIARLYSC [RRI2]", "protein stability index": "1.26 ± 0.053"}
{"sequence": "LARACAAQTNATFLKLA [RPT5]", "protein stability index": "2.6 ± 0.27"}
{"sequence": "LASEVGDPALVYKFMSL [ECM29]", "protein stability index": "2.05 ± 0.034"}
{"sequence": "LATYCPRVQGFYVPQAR [GRR1]", "protein stability index": "3 ± 0.049"}
{"sequence": "LAVLALVIVKKGEQELE [RPS6A]", "protein stability index": "2.54 ± 0.05"}
{"sequence": "LAYRNYWTQYLGLFIHK [YJL039C/NUP192]", "protein stability index": "2.02 ± 0.039"}
{"sequence": "LCKTKMVCETDVPSEDD [RPO21]", "protein stability index": "2.52 ± 0.067"}
{"sequence": "LDALTRHIKSKHEDLSL [RPN4]", "protein stability index": "2.61 ± 0.059"}
{"sequence": "LDDPEAVSKDPLLTKRK [DIS3]", "protein stability index": "3.1 ± 0.059"}
{"sequence": "LDDTTIPVGLMAQENSM [MCD1]", "protein stability index": "1.87 ± 0.078"}
{"sequence": "LDIGLQRTTTGARVFGA [RPL5]", "protein stability index": "1.12 ± 0.071"}
{"sequence": "LDIKRVGSENVECTISI [SNF12]", "protein stability index": "2.81 ± 0.065"}
{"sequence": "LDKDSSQSSAAAGASVD [RPN6]", "protein stability index": "3.2 ± 0.086"}
{"sequence": "LDNSKMDYHFIFSYLQF [RGR1]", "protein stability index": "1.8 ± 0.065"}
{"sequence": "LDSLMKTTRLLLIIRSL [YJL039C/NUP192]", "protein stability index": "1.27 ± 0.04"}
{"sequence": "LDSNNNNSNSNNNDNNN [SWI1]", "protein stability index": "2.71 ± 0.029"}
{"sequence": "LEACIVRIMKAKRNLPH [CDC53]", "protein stability index": "1.21 ± 0.045"}
{"sequence": "LEAKRKVSSAEYYAKKR [RPL16A]", "protein stability index": "3.35 ± 0.09"}
{"sequence": "LEALRQNYRLDGRSFDQ [RRP45]", "protein stability index": "2.81 ± 0.086"}
{"sequence": "LECQLFPQGLNIVMDSK [SSN8]", "protein stability index": "2.46 ± 0.19"}
{"sequence": "LEDDSLLSYPIKLDRWL [RPN12]", "protein stability index": "2.78 ± 0.063"}
{"sequence": "LEDFENFKGLAKEKERM [YIL149C/MLP2]", "protein stability index": "3.35 ± 0.083"}
{"sequence": "LEDLFSYRNGMASYMLN [YJR042W/NUP85]", "protein stability index": "2.42 ± 0.11"}
{"sequence": "LEEEFVSNSEILKPFEK [RPT2]", "protein stability index": "2.51 ± 0.14"}
{"sequence": "LEEKILAKKTHKQELQD [SMC4]", "protein stability index": "2.85 ± 0.073"}
{"sequence": "LEEQQQLEDESSRLEFV [YML103C/NUP188]", "protein stability index": "3.46 ± 0.08"}
{"sequence": "LEGETDPLRIAMKELAE [RPO26]", "protein stability index": "3.36 ± 0.15"}
{"sequence": "LEGITTTIDSLNAELES [SMC3]", "protein stability index": "3.14 ± 0.1"}
{"sequence": "LEHDVEYRPFSKKVLEC [DIS3]", "protein stability index": "3.37 ± 0.073"}
{"sequence": "LEIAKDFQPTELFDILS [IRR1]", "protein stability index": "3.08 ± 0.086"}
{"sequence": "LEIASSIDCLLILILVI [SWI1]", "protein stability index": "1.71 ± 0.035"}
{"sequence": "LEKIHSIEVQSLPEFFT [SWI3]", "protein stability index": "2.52 ± 0.069"}
{"sequence": "LEKKGFSEVYEYNRLKV [LIN1]", "protein stability index": "3.22 ± 0.12"}
{"sequence": "LERFNKRADISKRRITE [SMC1]", "protein stability index": "2.99 ± 0.13"}
{"sequence": "LESFQAVYNKLTGKQIV [RPS7A]", "protein stability index": "1.53 ± 0.052"}
{"sequence": "LESSITDAGVLALKLEL [YJL039C/NUP192]", "protein stability index": "1.57 ± 0.085"}
{"sequence": "LETILEEFRNLAALNVW [SSN2]", "protein stability index": "3.32 ± 0.057"}
{"sequence": "LETLFNRWHSESWANQL [FAS2]", "protein stability index": "3.02 ± 0.056"}
{"sequence": "LFGNNNTNNINNSSSGM [YGL172W/NUP49]", "protein stability index": "3.13 ± 0.13"}
{"sequence": "LFHSCTRIQYVDFACCT [GRR1]", "protein stability index": "2.21 ± 0.063"}
{"sequence": "LFKTLFKKLTKDIFRYM [RPB2]", "protein stability index": "1.66 ± 0.055"}
{"sequence": "LFRAIYLYCLDNNITEM [YCG1]", "protein stability index": "2.38 ± 0.05"}
{"sequence": "LFYFDSSFRPCPLSQQF [BRR2]", "protein stability index": "2.41 ± 0.033"}
{"sequence": "LGDKELWPVAIGLIALS [YJR042W/NUP85]", "protein stability index": "1.73 ± 0.16"}
{"sequence": "LGDMENNLEKYPFRYKT [RTT102]", "protein stability index": "3.43 ± 0.081"}
{"sequence": "LGHKELKVRKGHIAKLM [RPB2]", "protein stability index": "2.72 ± 0.047"}
{"sequence": "LGKFKNIIASPLSAGFN [SIN4]", "protein stability index": "2.04 ± 0.056"}
{"sequence": "LGKVRFANYKLLLKKII [SRB4]", "protein stability index": "1.53 ± 0.044"}
{"sequence": "LGKWYSKEDYETLKRDR [ARP7]", "protein stability index": "2.95 ± 0.15"}
{"sequence": "LGLGIAFAGSKNDEVLG [RPN1]", "protein stability index": "3.04 ± 0.14"}
{"sequence": "LGNTVSTQPSFAWSKPS [YGR119C/NUP57]", "protein stability index": "2.25 ± 0.035"}
{"sequence": "LGNVIVPNILSLDMNSM [NUT1]", "protein stability index": "2.27 ± 0.051"}
{"sequence": "LGRDYPIEVDEELLQLF [IRR1]", "protein stability index": "1.81 ± 0.24"}
{"sequence": "LGRVRNHFIFNVESAGA [RPC40]", "protein stability index": "1.27 ± 0.065"}
{"sequence": "LGSKKELGISLEHPYGK [SNU114]", "protein stability index": "3.28 ± 0.088"}
{"sequence": "LGVEDITLIDSASLHLN [RET1]", "protein stability index": "1.8 ± 0.046"}
{"sequence": "LGWIHTQTEELKFMAAS [PRP8]", "protein stability index": "2.71 ± 0.063"}
{"sequence": "LHGNAKKAAEEAGVTDV [FAS2]", "protein stability index": "3.34 ± 0.15"}
{"sequence": "LHIHGSSNPLGITGNLD [COB]", "protein stability index": "2.66 ± 0.054"}
{"sequence": "LHPQLHEVQYQESSSTL [SIN4]", "protein stability index": "2.3 ± 0.035"}
{"sequence": "LHPYVPSSKPQEQVYPD [SRB8]", "protein stability index": "3.25 ± 0.15"}
{"sequence": "LHVVSKSSIEKDPSPEI [SIN4]", "protein stability index": "3.14 ± 0.051"}
{"sequence": "LIAVYYSFGGLLMRLEG [RPB8]", "protein stability index": "2.89 ± 0.069"}
{"sequence": "LIELLTQMDGFDQSTNV [RPT3]", "protein stability index": "2.05 ± 0.08"}
{"sequence": "LIETVFVKNIRMLSFED [RPN9]", "protein stability index": "1.97 ± 0.041"}
{"sequence": "LIFIACNDEDKDLETLY [ECM29]", "protein stability index": "2.92 ± 0.035"}
{"sequence": "LIIVTRKNYMHVKNFGF [YML031W/NDC1]", "protein stability index": "1.87 ± 0.04"}
{"sequence": "LIKNGKKVTAFVPNDGC [RPS23A]", "protein stability index": "3.38 ± 0.054"}
{"sequence": "LIKQVPRLLGPQLSKAG [RPL1A]", "protein stability index": "1.6 ± 0.059"}
{"sequence": "LIKTLSTLHMLGYTHIA [RPP1]", "protein stability index": "2.65 ± 0.071"}
{"sequence": "LINEILLKSNDPLLSLY [RGR1]", "protein stability index": "2.13 ± 0.035"}
{"sequence": "LIQQVPPGLDALVKPET [CDC53]", "protein stability index": "3.24 ± 0.14"}
{"sequence": "LIRLQMEKLDAKLNHLK [SWI3]", "protein stability index": "3.1 ± 0.2"}
{"sequence": "LISGKAGVLNGTLEYGT [RET1]", "protein stability index": "2.99 ± 0.059"}
{"sequence": "LISLIMTTWRKLYTKEL [YMR129W/POM152]", "protein stability index": "1.16 ± 0.044"}
{"sequence": "LISRMIFIATQLEKKIR [BRR2]", "protein stability index": "2.03 ± 0.054"}
{"sequence": "LKALSHHYNPKTKKLNL [BRR2]", "protein stability index": "2.69 ± 0.053"}
{"sequence": "LKEILNVAKNMKTPSLT [RPO21]", "protein stability index": "3.47 ± 0.12"}
{"sequence": "LKESYSQKHNGRILKWL [CDC53]", "protein stability index": "2.14 ± 0.056"}
{"sequence": "LKETVIPSLANNGNNST [POP6]", "protein stability index": "2.56 ± 0.05"}
{"sequence": "LKFAVQVDKVTKEKVNG [RPL26A]", "protein stability index": "3.01 ± 0.069"}
{"sequence": "LKFNSTEYRGTLVSTDN [SMX3]", "protein stability index": "2.25 ± 0.041"}
{"sequence": "LKFVKVRVRTTKIPQIG [RPB2]", "protein stability index": "2.52 ± 0.04"}
{"sequence": "LKGLNGFPSAPQPLFME [YMR153W/NUP53]", "protein stability index": "2.69 ± 0.062"}
{"sequence": "LKGRVVEVCLADLQGSE [RPS1A]", "protein stability index": "2.49 ± 0.055"}
{"sequence": "LKKANIIYHTTFSWLNA [YLR018C/POM34]", "protein stability index": "2.54 ± 0.036"}
{"sequence": "LKKGEVSLGTSIMAVTF [PRE3]", "protein stability index": "1.13 ± 0.18"}
